Test results from US20210032312A1 (Janssen / Centocor, published 2021).

What was measured:
[1] = molecular target: T1, human CD8 alpha (CD8A) on primary human CD8+ T cells (human, UniProt P01732 22-235); test: flow cytometry, human CD8+ T cells
T1 construct: whole, on cells; also called hCD8A
Protocol: (§1) Binding of the 190 ELISA hits to human and cynomologous monkey primary CD8 T cells was assessed by flow cytometry. The FN3 domain molecules were diluted to 2 μM and 0.2 μM in PBS and incubated with human or cynomologous monkey CD8+ T cells in 96-well format. After 1 hour at 4 C, the cells were washed once with PBS and then resuspended with an anti-FN3 domain antibody (PAB25) solution. Following this incubation, the cells were washed twice with PBS and a PE conjugated secondary antibody and a viability dye were added. Finally, cells were washed and resuspended in PBS for flow cytometric analysis using a BD Canto Instrument. Cells were gating on live cells and median fluorescence intensity of the bound Centyrins (PE channel) was calculated using Cytobank software.

[2] = molecular target: T2, cynomolgus monkey CD8 alpha on primary cynomolgus CD8+ T cells (cynomolgus monkey, UniProt P01732 23-235 (human entry)); test: flow cytometry, cyno CD8+ T cells
T2 construct: also called Cyno CD8alpha; cyno CD8A
T2 sequence (P01732 other isoform, or with tags, fused parts or gaps limits assumed): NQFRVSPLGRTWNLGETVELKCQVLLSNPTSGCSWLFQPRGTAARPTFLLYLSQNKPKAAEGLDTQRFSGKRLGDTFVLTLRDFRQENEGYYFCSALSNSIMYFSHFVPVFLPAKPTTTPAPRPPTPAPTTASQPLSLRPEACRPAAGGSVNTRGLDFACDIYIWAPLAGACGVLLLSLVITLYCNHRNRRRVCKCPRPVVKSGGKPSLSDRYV
Protocol: as §1

human CD8A-Fc (in house) = molecular target: T3, human CD8A-Fc (in house) (human, UniProt P01732 22-182, limits assumed); test: SPR (ProteOn), captured hCD8A-Fc
T3 construct: captured by goat anti-human Fc on the ProteOn chip; also called hCD8A-Fc; recombinant human CD8 alpha; not shown: linker/tag and Fc of human IgG1
T3 sequence (P01732 22-182 limits assumed): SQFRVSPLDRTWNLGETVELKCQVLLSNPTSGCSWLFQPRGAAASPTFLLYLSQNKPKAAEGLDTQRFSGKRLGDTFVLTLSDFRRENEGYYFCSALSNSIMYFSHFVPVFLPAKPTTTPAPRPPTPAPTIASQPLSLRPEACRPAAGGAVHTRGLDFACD

T1 sequence (P01732 22-235): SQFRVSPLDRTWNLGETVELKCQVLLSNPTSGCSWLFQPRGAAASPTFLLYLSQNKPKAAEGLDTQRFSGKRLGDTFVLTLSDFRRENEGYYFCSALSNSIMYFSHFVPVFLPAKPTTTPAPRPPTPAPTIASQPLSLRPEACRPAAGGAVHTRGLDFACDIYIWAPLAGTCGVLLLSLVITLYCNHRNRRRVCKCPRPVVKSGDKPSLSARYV

| Binder | Human T-cell Binding 0.2 uM (MFI) [1] | Human T-cell Binding 2 uM (MFI) [1] | Cyno T-cell Binding 0.2 uM (MFI) [2] | Cyno T-cell Binding 2 uM (MFI) [2] | koff (human CD8A-Fc (in house)) |
| --- | --- | --- | --- | --- | --- |
| P283DR9P1364_H6 (designed binder, FN3 domain) LPAPKNLVVSRVTEDSARLSWTAPDAAFDSFIIAYPETPVRGEAIVLTVPGSERSYDLTGLKPGTEYFVIIIGVKGGQESFPLSAIFTT | 268 MFI | 2620 MFI | 418 MFI | 6000 MFI | 0.0023 s⁻¹ |
| P283DR9P1364_H11 (designed binder, FN3 domain) LPAPKNLVVSRVTEDSARLSWTAPDAAFDSFDIAYPELPLGGEAIVLTVPGSERSYDLTGLKPGTEYFVIIWGVKGGDRSEPLSAIFTT | 834 MFI | 11500 MFI | 9460 MFI | 60600 MFI | 0.000964 s⁻¹ |
| P283FR9P1366_A1 (designed binder, FN3 domain) LPAPKNLVVSRVTEDSARLSWTAPDAAFDSFWITYPEWPVPGEAIVLTVPGSERSYDLTGLKPGTEYAVFIWGVKGGDASEPLSAIFTT | 516 MFI | 8780 MFI | 1650 MFI | 39400 MFI | 0.00226 s⁻¹ |
| P283FR9P1366_A5 (designed binder, FN3 domain) LPAPKNLVVSRVTEDSARLSWTAPDAAFDSFWIAYPEWPTRGEAIVLTVPGSERSYDLTGLKPGTEYFVVIYGVKGGSPSPPLSAIFTT | 3600 MFI | 27600 MFI | 10900 MFI | 67800 MFI | 0.000585 s⁻¹ |
| P283FR9P1366_A9 (designed binder, FN3 domain) LPAPKNLVVSRVTEDSARLSWTAPDAAFDSFNIAYGEYPGPGEAIVLTVPGSERSYDLTGLKPGTEYWVPIWGVKGGELSEPLSAIFTT | 252 MFI | 1720 MFI | 580 MFI | 8810 MFI | 0.00394 s⁻¹ |
| P283FR9P1366_B7 (designed binder, FN3 domain) LPAPKNLVVSRVTEDSARLSWTAPDAAFDSFWITYPEWPVNGEAIVLTVPGSERSYDLTGLKPGTEYWVVIWGVKGGVESPPLSAIFTT | 899 MFI | 11400 MFI | 4670 MFI | 51200 MFI | 0.00115 s⁻¹ |
| P283FR9P1366_C2 (designed binder, FN3 domain) LPAPKNLVVSRVTEDSARLSWTAPDAAFDSFKISYPEWPPEGEAIVLTVPGSERSYDLTGLKPGTEYAVFIWCVKGGEHSWPLSAIFTT | 4320 MFI | 41000 MFI | 19300 MFI | 89200 MFI | 0.000491 s⁻¹ |
| P283FR9P1366_C3 (designed binder, FN3 domain) LPAPKNLVVSRVTEDSARLSWTAPDAAFDSFKIAYPEWPDGGEAIVLTVPGSERSYDLTGLKPGTEYFVIIYGVKGGILSPPLSAIFTT | 407 MFI | 1820 MFI | 1040 MFI | 4630 MFI | 0.00207 s⁻¹ |
| P283FR9P1366_C4 (designed binder, FN3 domain) LPAPKNLVVSRVTEDSARLSWTAPDAAFDSFNIAYPEWPVRGEAIVLTVPGSERSYDLTGLKPGTEYWVIIIGVKGGEDSWPLSAIFTT | 3750 MFI | 33800 MFI | 10200 MFI | 63400 MFI | 0.000536 s⁻¹ |
| P283FR9P1366_C6 (designed binder, FN3 domain) LPAPKNLVVSRVTEDSARLSWTAPDAAFDSFSIAYPEWPVYGEAIVLTVPGSERSYDLTGLKPGTEYFVVIYGVKGGNYSDPLSAIFTT | 483 MFI | 4540 MFI | 1680 MFI | 26200 MFI | 0.00143 s⁻¹ |
| P283FR9P1366_D6 (designed binder, FN3 domain) LPAPKNLVVSRVTEDSARLSWTAPDAAFDSFNIFYPELVFPGEAIVLTVPGSERSYDLTGLKPGTEYWVNISGVKGGEHSWPLSAIFTT | 4550 MFI | 32900 MFI | 10400 MFI | 79600 MFI | 0.000509 s⁻¹ |
| P283FR9P1366_D7 (designed binder, FN3 domain) LPAPKNLVVSRVTEDSARLSWTAPDAAFDSFSIAYPELPVKGEAIVLTVPGSERSYDLTGLKPGTEYFVVIWGVKGGTYSGPLSAIFTT | 566 MFI | 7520 MFI | 2580 MFI | 41400 MFI | 0.000354 s⁻¹ |
